A value given as a limit tells only on which side of the number the result lay.

The source of these data is US20230279406A1.

Experiment in all cases: cell-based or functional assay
The target in assay [1] is T1, CD380 PV1-RfxCas13d-656C-NLS-BGHpA.
T1 sequence: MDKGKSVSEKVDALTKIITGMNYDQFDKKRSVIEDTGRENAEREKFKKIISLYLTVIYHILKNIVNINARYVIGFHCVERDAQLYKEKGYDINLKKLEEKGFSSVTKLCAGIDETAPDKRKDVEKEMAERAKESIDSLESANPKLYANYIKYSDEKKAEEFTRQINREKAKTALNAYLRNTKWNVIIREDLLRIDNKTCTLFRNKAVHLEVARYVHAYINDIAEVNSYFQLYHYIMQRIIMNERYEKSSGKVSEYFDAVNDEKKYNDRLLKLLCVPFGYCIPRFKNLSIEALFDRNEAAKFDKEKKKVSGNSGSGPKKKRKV

In assay [2] the target is T2, CD244 PV1-GAI-L1-RfxCas13d-560C-NLS-BGHpA.
T2 sequence: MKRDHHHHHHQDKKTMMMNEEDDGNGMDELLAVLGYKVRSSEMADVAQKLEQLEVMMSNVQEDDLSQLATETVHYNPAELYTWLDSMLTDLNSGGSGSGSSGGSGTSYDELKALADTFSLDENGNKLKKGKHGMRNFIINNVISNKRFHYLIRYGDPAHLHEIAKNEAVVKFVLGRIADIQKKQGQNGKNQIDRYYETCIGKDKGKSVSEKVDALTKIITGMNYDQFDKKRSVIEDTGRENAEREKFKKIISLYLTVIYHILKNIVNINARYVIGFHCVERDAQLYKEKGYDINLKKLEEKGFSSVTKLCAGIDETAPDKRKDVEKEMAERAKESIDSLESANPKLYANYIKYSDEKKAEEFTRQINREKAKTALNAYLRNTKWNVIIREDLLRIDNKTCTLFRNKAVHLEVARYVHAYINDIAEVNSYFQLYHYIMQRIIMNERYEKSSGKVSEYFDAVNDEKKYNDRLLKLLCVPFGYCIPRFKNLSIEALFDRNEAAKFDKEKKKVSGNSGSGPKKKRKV

The target of assay [3] is T3, CD400 PV1-GAI-L1-RfxCas13d-264C-NLS-BGHpA.
T3 sequence: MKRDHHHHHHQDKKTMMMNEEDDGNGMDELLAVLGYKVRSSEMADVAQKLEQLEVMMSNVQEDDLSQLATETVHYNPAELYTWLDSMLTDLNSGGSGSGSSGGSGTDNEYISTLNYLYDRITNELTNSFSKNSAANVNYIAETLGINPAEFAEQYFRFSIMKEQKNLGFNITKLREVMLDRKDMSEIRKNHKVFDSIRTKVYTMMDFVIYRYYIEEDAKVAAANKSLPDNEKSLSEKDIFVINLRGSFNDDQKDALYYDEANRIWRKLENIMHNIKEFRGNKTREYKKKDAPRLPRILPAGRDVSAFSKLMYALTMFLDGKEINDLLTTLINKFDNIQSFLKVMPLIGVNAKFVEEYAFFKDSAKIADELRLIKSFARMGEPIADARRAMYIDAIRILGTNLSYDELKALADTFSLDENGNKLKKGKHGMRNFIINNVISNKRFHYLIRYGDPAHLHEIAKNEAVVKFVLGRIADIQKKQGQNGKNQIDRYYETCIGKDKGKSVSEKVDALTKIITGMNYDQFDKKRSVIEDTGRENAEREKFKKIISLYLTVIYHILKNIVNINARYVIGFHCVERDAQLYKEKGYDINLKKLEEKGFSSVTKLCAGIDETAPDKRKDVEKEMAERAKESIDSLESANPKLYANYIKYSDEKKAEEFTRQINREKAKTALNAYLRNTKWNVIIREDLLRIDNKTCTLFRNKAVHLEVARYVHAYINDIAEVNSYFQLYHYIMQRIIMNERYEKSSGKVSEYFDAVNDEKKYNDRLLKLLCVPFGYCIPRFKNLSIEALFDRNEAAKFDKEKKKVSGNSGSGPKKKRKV

For assay [4], the target named is T4, CD374 PV1-RfxCas13d-560C-NLS-BGHpA.
T4 sequence: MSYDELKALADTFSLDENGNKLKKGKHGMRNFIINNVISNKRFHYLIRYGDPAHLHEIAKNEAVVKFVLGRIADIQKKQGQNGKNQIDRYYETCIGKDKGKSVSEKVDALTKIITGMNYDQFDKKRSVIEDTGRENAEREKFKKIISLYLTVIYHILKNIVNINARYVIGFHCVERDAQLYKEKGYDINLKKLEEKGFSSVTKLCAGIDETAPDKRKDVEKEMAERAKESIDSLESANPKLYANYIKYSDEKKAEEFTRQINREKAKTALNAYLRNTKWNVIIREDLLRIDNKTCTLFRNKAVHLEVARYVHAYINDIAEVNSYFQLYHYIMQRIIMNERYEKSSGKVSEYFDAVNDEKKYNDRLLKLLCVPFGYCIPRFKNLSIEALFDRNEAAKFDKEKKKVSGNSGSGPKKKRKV

In assay [5] the target is T5, CD376 PV1-RfxCas13d-566C-NLS-BGHpA.
T5 sequence: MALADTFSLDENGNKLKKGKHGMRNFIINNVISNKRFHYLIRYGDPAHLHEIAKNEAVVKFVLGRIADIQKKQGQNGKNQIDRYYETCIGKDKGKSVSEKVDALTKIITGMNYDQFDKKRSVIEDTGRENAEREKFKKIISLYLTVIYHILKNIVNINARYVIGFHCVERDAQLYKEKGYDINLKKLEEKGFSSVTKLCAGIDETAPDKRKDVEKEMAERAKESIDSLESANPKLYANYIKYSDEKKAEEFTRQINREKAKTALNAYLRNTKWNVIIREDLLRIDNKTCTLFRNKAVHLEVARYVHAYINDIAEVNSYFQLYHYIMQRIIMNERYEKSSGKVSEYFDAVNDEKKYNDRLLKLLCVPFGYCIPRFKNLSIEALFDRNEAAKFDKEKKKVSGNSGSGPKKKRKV

B1: CD379 PV1-RfxCas13d-N655-NLS-BGHpA (protein)
chain: MIEKKKSFAKGMGVKSTLVSGSKVYMTTFAEGSDARLEKIVEGDSIRSVNEGEAFSAEMADKNAGYKIGNAKFSHPKGYAVVANNPLYTGPVQQDMLGLKETLEKRYFGESADGNDNICIQVIHNILDIEKILAEYITNAAYAVNNISGLDKDIIGFGKFSTVYTYDEFKDPEHHRAAFNNNDKLINAIKAQYDEFDNFLDNPRLGYFGQAFFSKEGRNYIINYGNECYDILALLSGLRHWVVHNNEEESRISRTWLYNLDKNLDNEYISTLNYLYDRITNELTNSFSKNSAANVNYIAETLGINPAEFAEQYFRFSIMKEQKNLGFNITKLREVMLDRKDMSEIRKNHKVFDSIRTKVYTMMDFVIYRYYIEEDAKVAAANKSLPDNEKSLSEKDIFVINLRGSFNDDQKDALYYDEANRIWRKLENIMHNIKEFRGNKTREYKKKDAPRLPRILPAGRDVSAFSKLMYALTMFLDGKEINDLLTTLINKFDNIQSFLKVMPLIGVNAKFVEEYAFFKDSAKIADELRLIKSFARMGEPIADARRAMYIDAIRILGTNLSYDELKALADTFSLDENGNKLKKGKHGMRNFIINNVISNKRFHYLIRYGDPAHLHEIAKNEAVVKFVLGRIADIQKKQGQNGKNQIDRYYETCIGKPKKKRKV
For the molecule B1, the gRNA induced mCherry knockdown efficiency, no CID domain in assay [1] was < 80%.

B2: CD243 PV1-RfxCas13d-N559-L1-GID-NLS-BGHpA (protein)
chain: MIEKKKSFAKGMGVKSTLVSGSKVYMTTFAEGSDARLEKIVEGDSIRSVNEGEAFSAEMADKNAGYKIGNAKFSHPKGYAVVANNPLYTGPVQQDMLGLKETLEKRYFGESADGNDNICIQVIHNILDIEKILAEYITNAAYAVNNISGLDKDIIGFGKFSTVYTYDEFKDPEHHRAAFNNNDKLINAIKAQYDEFDNFLDNPRLGYFGQAFFSKEGRNYIINYGNECYDILALLSGLRHWVVHNNEEESRISRTWLYNLDKNLDNEYISTLNYLYDRITNELTNSFSKNSAANVNYIAETLGINPAEFAEQYFRFSIMKEQKNLGFNITKLREVMLDRKDMSEIRKNHKVFDSIRTKVYTMMDFVIYRYYIEEDAKVAAANKSLPDNEKSLSEKDIFVINLRGSFNDDQKDALYYDEANRIWRKLENIMHNIKEFRGNKTREYKKKDAPRLPRILPAGRDVSAFSKLMYALTMFLDGKEINDLLTTLINKFDNIQSFLKVMPLIGVNAKFVEEYAFFKDSAKIADELRLIKSFARMGEPIADARRAMYIDAIRILGTNLSGGSGSGSSGGSGTMAASDEVNLIESRTVVPLNTWVLISNFKVAYNILRRPDGTFNRHLAEYLDRKVTANANPVDGVFSFDVLIDRRINLLSRVYRPAYADQEQPPSILDLEKPVDGDIVPVILFFHGGSFAHSSANSAIYDTLCRRLVGLCKCVVVSVNYRRAPENPYPCAYDDGWIALNWVNSRSWLKSKKDSKVHIFLAGDSSGGNIAHNVALRAGESGIDVLGNILLNPMFGGNERTESEKSLDGKYFVTVRDRDWYWKAFLPEGEDREHPACNPFSPRGKSLEGVSFPKSLVVVAGLDLIRDWQLAYAEGLKKAGQEVKLMHLEKATVGFYLLPNNNHFHNVMDEISAFVNAECPKKKRKV
Take B2: in assay [2], the mCherry knockdown with gRNA and gibberellin (drug-induced) is > 75%; the mCherry knockdown with gRNA, without gibberellin (basal) fell in the range of 10 to 20%.

B3: CD399 PV1-RfxCas13d-N263-L1-GID-NLS-BGHpA (protein)
chain: MIEKKKSFAKGMGVKSTLVSGSKVYMTTFAEGSDARLEKIVEGDSIRSVNEGEAFSAEMADKNAGYKIGNAKFSHPKGYAVVANNPLYTGPVQQDMLGLKETLEKRYFGESADGNDNICIQVIHNILDIEKILAEYITNAAYAVNNISGLDKDIIGFGKFSTVYTYDEFKDPEHHRAAFNNNDKLINAIKAQYDEFDNFLDNPRLGYFGQAFFSKEGRNYIINYGNECYDILALLSGLRHWVVHNNEEESRISRTWLYNLDKNLSGGSGSGSSGGSGTMAASDEVNLIESRTVVPLNTWVLISNFKVAYNILRRPDGTFNRHLAEYLDRKVTANANPVDGVFSFDVLIDRRINLLSRVYRPAYADQEQPPSILDLEKPVDGDIVPVILFFHGGSFAHSSANSAIYDTLCRRLVGLCKCVVVSVNYRRAPENPYPCAYDDGWIALNWVNSRSWLKSKKDSKVHIFLAGDSSGGNIAHNVALRAGESGIDVLGNILLNPMFGGNERTESEKSLDGKYFVTVRDRDWYWKAFLPEGEDREHPACNPFSPRGKSLEGVSFPKSLVVVAGLDLIRDWQLAYAEGLKKAGQEVKLMHLEKATVGFYLLPNNNHFHNVMDEISAFVNAECPKKKRKV
In the case of B3, the mCherry knockdown efficiency with GIB CID domains in assay [3] is > 60%.

B4: CD373 PV1-RfxCas13d-N559-NLS-BGHpA (protein)
chain: MIEKKKSFAKGMGVKSTLVSGSKVYMTTFAEGSDARLEKIVEGDSIRSVNEGEAFSAEMADKNAGYKIGNAKFSHPKGYAVVANNPLYTGPVQQDMLGLKETLEKRYFGESADGNDNICIQVIHNILDIEKILAEYITNAAYAVNNISGLDKDIIGFGKFSTVYTYDEFKDPEHHRAAFNNNDKLINAIKAQYDEFDNFLDNPRLGYFGQAFFSKEGRNYIINYGNECYDILALLSGLRHWVVHNNEEESRISRTWLYNLDKNLDNEYISTLNYLYDRITNELTNSFSKNSAANVNYIAETLGINPAEFAEQYFRFSIMKEQKNLGFNITKLREVMLDRKDMSEIRKNHKVFDSIRTKVYTMMDFVIYRYYIEEDAKVAAANKSLPDNEKSLSEKDIFVINLRGSFNDDQKDALYYDEANRIWRKLENIMHNIKEFRGNKTREYKKKDAPRLPRILPAGRDVSAFSKLMYALTMFLDGKEINDLLTTLINKFDNIQSFLKVMPLIGVNAKFVEEYAFFKDSAKIADELRLIKSFARMGEPIADARRAMYIDAIRILGTNLPKKKRKV
Regarding B4, in assay [4], the gRNA induced mCherry knockdown efficiency, no CID domain is < 80%.

B5: CD375 PV1-RfxCas13d-N565-NLS-BGHpA (protein)
chain: MIEKKKSFAKGMGVKSTLVSGSKVYMTTFAEGSDARLEKIVEGDSIRSVNEGEAFSAEMADKNAGYKIGNAKFSHPKGYAVVANNPLYTGPVQQDMLGLKETLEKRYFGESADGNDNICIQVIHNILDIEKILAEYITNAAYAVNNISGLDKDIIGFGKFSTVYTYDEFKDPEHHRAAFNNNDKLINAIKAQYDEFDNFLDNPRLGYFGQAFFSKEGRNYIINYGNECYDILALLSGLRHWVVHNNEEESRISRTWLYNLDKNLDNEYISTLNYLYDRITNELTNSFSKNSAANVNYIAETLGINPAEFAEQYFRFSIMKEQKNLGFNITKLREVMLDRKDMSEIRKNHKVFDSIRTKVYTMMDFVIYRYYIEEDAKVAAANKSLPDNEKSLSEKDIFVINLRGSFNDDQKDALYYDEANRIWRKLENIMHNIKEFRGNKTREYKKKDAPRLPRILPAGRDVSAFSKLMYALTMFLDGKEINDLLTTLINKFDNIQSFLKVMPLIGVNAKFVEEYAFFKDSAKIADELRLIKSFARMGEPIADARRAMYIDAIRILGTNLSYDELKPKKKRKV
Turning to B5, the gRNA induced mCherry knockdown efficiency, no CID domain in assay [5] is < 80%.
